Laboratory results from the DeepSol protein solubility set.

Experiment: soluble on expression in E. coli; label from the status in PepcDB or PDB records

Sequence | soluble on expression in E. coli
MVSQLACIIWTGIIAGRTATLTEGDNMKLPKWLEEKYDLLWDKFEDREFRSTEALEILGKEHLIDEKSLSAAISEMRKKGWIETRKDPDDERRRIYMLRPKSEIIQDYLTLKDDKLGRADIERILKGAADLIRTRVDYKFILVLLFMKQMSDKWMMEYQKAYEDAIKEYGLSEEEARLEARNSAYHDLDIKEEYLWDNIRKDVENLPIKFAGALKNLAELNPAFKDVVDAFDFVEFTQSQENREILRQLVELFSEKKLTNVDPDILGDAYEWILRYFAPTKAKEGEVYTPREVIRLLVEILDPKPGESVYDPASASNGMLIISHKYVKETYGEAERLFLYGQEVNRKTMALGSMNMYIHDIKDHHIAHGDTLLYPKFKESDGIMRFDVVIANPPWNQDGYGEDTLKKGDYWRERFRYGFVNKQSADWAWIQHMIASAKDDGRIGVVIDNGCLFRGGREKSIRSAVLEDDLIEAVILLPEKLFYNTGAPGAIIILNKDKDEERRGKVLFINAGEEYEKHPEVRKLNILSDGNIERILEAYREFQGDDGFSRVVDLDEIRENDYNLNVPLYAFPEEELEDIDVAGEWMRLSEIEEELAEVDERIRGYLDELGYMGVKM | soluble
MGSDKIHHHHHHMKKGILIETDNVTRLRAAVKQAEDTERGRPGMVAVWGEAGAGKTIAAHSLYAQRGGVFLRAMEGMSQHAFLQELCWEVKGTRPHGSHRCRADILRALEEEPATVYVDEADRLDLRRLEDLRDIHDITGCPVVLIGEQHLPGKLAERTRIDDRIPEEYRVPFSGITPRDVSLFALEAAEIVLTPGAAGLIHKQAKGNFRRIHNLMLSVESAARAHDTTEVDEALVRAAMPAARSSASRAPRRGQHA | not soluble
MWKRLCAGLSCRKFINQVTMTSVNKNRKSRDENEMAKYNEKELADTSKFLSFVLRHKPEAIGIVLDREGWADIDKLILCAQKAGKRLTRALLDTVVATSDKKRFSYSSDGRCIRAVQGHSTSQVAISFAEKTPPQFLYHGTASRFLDEIKKQGLIAGERHYVHLSADEATARKVGARHGSPVILTVKAQEMAKRGLPFWQAENGVWLTSTVAVEFLEW | soluble
MTTGNLQVAIYGFTARSRAFEPAGICYETRLIRDKLTLGHCTLPIYKNSPVAKPVTEQQRKKSSEEPAELRKDLFDADNEKYEKYLMKLDPNDCKNQDHYKVLGLSKLRWQATSDEIRFCYRQKVLKHHPDKKKHRGIVMEKEEYFTCITKAYEQVGMSDVKRQAFDSVDHKFNDIIPNEKSINHNNFYNELAPVFQLNSRWSNIKPVPELGKSDATREDVENFYDFWFNFQSWREFSYLDEEDKERGEDRYERREMEKQNKAERERRRKEEAKRIRKLVDIAYAKDPRIIKFKKEQQAKKDKAKEDKQRAIREKQEAIDREKREKEEAEAKQKEEADRKAKEEREREKKERDIAKKAMSQQRKRLKKLADEAGHWTENPRDKLTEMERIERICIGFTVDQLRELCEKVESLSIASEIQTALTDAEILKKEAAGAKVTITEDKNKENEKQADKETWTSEEIQLLVKASNTFPPGTVERWVQIADYINEHRKDSTGLPPKTEKQVIKQCKAVQTMNVKLPSTTQNQLGTALPDEDVWSATEQKTLEDAIKKHKSSDPERWEKISTEVGTKSKKACIRRFKYLVQMVKNKK | not soluble
MGSDKIHHHHHHMPIKSRAVVIPKRNTIEIRTVQVNEPKAGDVLIKTAFTSISAGTERMLLDGRLPQPQLLFPVVPGYETVGQVVQVGSKAPKELLGQWVYIGGARCFRGVNAAWGGQSEYITAEHERVVPLGSLDPATGVLLALAATALHGIKIGQIRRSDRVLVLGQGIVGQLAARLAKYAGAQHVAVADRVAVRLQASQADQVIDVTRESLDEAIGEAKVDVLIEATGSMGALSGALPLLANHGRVVLLGYYDHINIPYAPVFMREAQILVAREWEFGPDGDLPRVRDLLANGDLKVDGLLTHHVPLDRIQAAYRLAPGRPGLFEGCCHVAAKRYRRSVVLTRQGAMRISLEREMALCPPIQKRNNQVQQHECSPSTAKAAWENHSSPPIW | not soluble
MLDQVCQLARNAGDAIMQVYDGAKPMDVVSKADNSPVTAADIAAHTVIMDGLRTLTPDIPVLSEEDPPGWEVRQHWQRYWLVDPLDGTKEFIKRNGEFTVNIALIDHGKPILGVVYAPVMNVMYSAAEGKAWKEECGVRKQIQVRDARPPLVVISRSHADAELKEYLQQLGEHQTTSIGSSLKFCLVAEGQAQLYPRFGPTNIWDTAAGHAVAAAAGAHVHDWQGKPLDYTPRESFLNPGFRVSIY | not soluble
MSLIMKVVVKVGSNLLVGSSGLRKSYIAELCREVARLKSQGHEISIITSGARAAGFTYLGKGKRTQDLHIKQALCAVGQVQLMKVYENAFDFYGIKIAQILLTRDTFSNRKRYLNLRNTLIGLSEFDVVPIVNENDTVATEEITLGDNDTLAAMFSIAWDADFLVLFTTVDGVIDENGKLVERFDESVKLKDMGKSSWGTGGIRSKIESALMASRCGVKATICSGNDVSNLTRFVKGEPVGTVFEPQGRLKAKKAWIAFLSEPAGKIYVNKGAEEALKSGNSLLPVGVTGVEGTFDVGDVVEIVNEEGELVGRGIVNYSSSDLEKIAGHKSSDLKKILGYEGNKVVVHIDNMWVAEGHHHHHH | soluble
MGSDKIHHHHHHMLAEERQQMIAHYVDEHQICRVTELCRLTSTSESTIRRDLSEMEDRGLLKRVHGGAQSLQTFGQDVAQQIRFNLNKDDKLAIARLAARKVHPHDYLFLDAGTTIYEMVPFLKEISGLHVVTNGLETALALTDAGIDCCLLGGHVKRQTHAAIGATTVSRLQELNFNAAFIGANALSPAGFLTTPDTEEAAVKRTAIQQSQQAFVLIDRSKFNAVTFAEFAKTDQVTIISRLEAGDREKLPVNIQLEEAE | not soluble
MTGDYALCGWRVRIDRPSTFAPPWIGEDRPVDITIRHAAFSPPSPPLLFESPLVGVFAEGAIVLRINPGLGFLIEGGARITVDATAQTGEAEIATFLFGQCLGFLALQRRQPALRAASVVRDGRAVVLAGAAGVGKSTLAAALMAKGWGLLADEVTLIDPRTLLIPPAFGRIKLWKDSATHLGLEAAALPAVRPGWNKGHAPYGGHLAPAPVPLAAIILIEQAYTAKTAGIDKIAPREALAALNDQLHGGTFAGALAARPACFDLLTTLVGGVPVFQLSRPWHGMTLAPLVELLTAEMARLEHHHHHH | not soluble
MHHHHHHSSGVDLGTENLYFQSNAMSHSIEQLSINTIRTLSIDAIEKANSGHPGMPMGAAPMAYTLWTQFMKHNPNNPTWFNRDRFVLSAGHGSMLLYSLLHLSGYDVTMDDLKNFRQWGSKTPGHPEYGHTAGVDATTGPLGQGIATAVGMAMAERHLAAKYNRDAYNIVDHYTYAICGDGDLMEGVSAEASSLAAHLQLGRLVVLYDSNDISLDGDLNRSFSESVEDRYKAYGWQVIRVEDGNDIEAIAKAIEEAKADEKRPTLIEVRTTIGFGSPNKSGKSASHGSPLGVEETKLTKEAYAWTAEQDFHVAEEVYENFRKTVQDVGETAQAEWNTMLGEYAQAYPELANELQAAMNGLLPEGWEQNLPTYELGSKAATRNSSGAVINAIAESVPSFFGGSADLAGSNKTYMNNEKDFTRDDYSGKNIWYGVREFAMGAAMNGIALHGGLKTYGGTFFVFSDYLRPAIRLAALMQLPVTYVFTHDSIAVGEDGPTHEPIEQLAALRAMPNVSVIRPADGNESVAAWRLALESTNKPTALVLTRQDLPTLEGAKDDTYEKVAKGAYVVSASKKETADVILLATGSEVSLAVEAQKALAVDGVDASVVSMPSMDRFEAQTAEYKESVLPKAVTKRFAIEMGATFGWHRYVGLEGDVLGIDTFGASAPGEKIMEEYGFTVENVVRKVKEML | soluble
MGSDKIHHHHHHMSRALAKPEIITELSFEEIRAAVLTHLKELLPEYTFLESDPAVKVIEAFSYRELLLRQRINEAARNNILDFATGESLDALGNWHGIARIEGESDERYRERVQLHARGGNGSGTEPYYKLIALTADSRVKDAIIYRKGKDPTIYVAIFGNNEEGTASEDLLQTVSQALHRKNIIMTNDTIIVHAAVKKVLDLEADVWLLPEASLKILTTMEANLRTAWKQEQAIGRELSLSWWVSKLMIPGVQKVIAIAPTKDSVVCDEEILSIGKITLNFKGRAR | not soluble
MGSDKIHHHHHHMNILVSNGEEHVNQTIASFFHQRGDRPILLFTEKEKHLEYVAGHPEQEAVLCTTYEEETLAAMVKEAFEEEAIDVLVHGNEMVNEAELLERDPSSLNEVVQKALYHLFLLNKVVVRDMVKRKQGKIIFPLFYDPLYYAGYASSPILNQAKLSLMKCMSRELGAFKINVNSITFGYYNDQFTREEKKATKSQVEIFCLKPKLPEIEEYVHSIGLLVDPSASLIGGENLHVGAGIETGI | not soluble
MGSDKIHHHHHHAALYARWAPTHSAAPAAEQQRKVLFWYDPMYPNTRFDKPGKSPFMDMDLVPKYADEEHAAAGAPGVRIDPTQTQNLGVKTAAVTRGPLRYAQTFPANISYNEYQYVIMQARAAGFINKVYPLTVGDKVKQGTPLLELTIPDWVEAQSEYLLLQETGGTATQVEGILERLRLAGMPDDDIRRLKATRKIQTRFTLTAPIDGVITAFDLRAGMNIAKDNVVAKIQGMDPVWVSVAVPESIAWLIKDASQFSIQVPAWPGKTFRISKWTLLPSVDSATRTLQLRLQVNNPDEALKPGMNAYLQLTSESAPMLLIPSKALIDSGSEQRVITVDNEGRFVPKRVQVFHESAGVTAIRSGLQEGEKVVARGLFLIDSEANIAGALERMRAQAPDAAASAAHAH | not soluble
MGSDKIHHHHHHEDFLQKDPPSSPSQSVFWQKKSDFESALAGTYSVMYSGVFSQIMPCLDGLTDNAIVQHSEGTYGWAKTIAQGDLTPNQGGFVTDIYGNCYKGIARVHILMEQLDQYTGSDISADEKKFMLAQCKALRGYFYSWLYQCYKEVPVVTQSLDLNTMYQPKATRAEVLNRVMTDYDEAISELPDKLYSDSQTSGRFTVSAVKALKARILLFDAYDSNGKAISSKMEEVLTLLQSIKGYSLAARVRDNFISEKQLASPEIMFSVRFLRPNLTHSMDLYYGAWAVLDPTRNMVDAFECTDGKPWGESPLTVRPDESILYGNDDALKKAERAKMFMNRDRRLYESVNHSMMANFVDDGFKDEEVQVNESNNKGPTGFSALKYVQPTDVTPGYSTVSDADIVVLRYAHVLLMIAEAENEAHGATTTALNAINEVRTRSGQPAIEAGISQDDLRERIRNEWRIETCFEGLRYFQLKRWKLMDKRVNGVEDPAYPGYIKVYKPAFEFFPIPQSEIDKAGGVLKQDPAYE | not soluble
GSHMAAQSGNDAAEVALYERLLQLRVLPGASDVHDVRFVFGDDSRCWIEVAMHGDHVIGNSHPALDPKSRATLEHVLTVQGDLAAFLVVARDMLLASL | soluble
MEISGEEDKEEAVTLPKEVSKISISDGNKFVYQILNGPNEQCFENFRMDKPVFYKLCDLLQTRGLLRHTNRIKIEAQLAIFLFIIGHNLRTRAVQELFCYSGETISRHFNNVLNAVIAISKDFFQPNSNSDTLENDDPYFKDCVGVVDSFHIPVMVGVDEQGPFRNGNGLLTQNVLAASSFDLRFNYVLAGWEGSASDQQVLNAALTRRNKLQVPQGKYYIVDNKYPNLPGFIAPYHGVSTNSREEAKEMFNERHKLLHRAIHRTFGALKERFPILLSAPPYPLQTQVKLVIAACALHNYVRLEKPDDLVFRMFEEETLAEAGEDREVALEEEQVEIVGQEHGFRPEEVEDSLRLRDEIASELWNHYVQNMSTF | soluble
MNDIIVLTGKVKFTITLDPGVWIFDDRKVDMDAYFSEPAPQPTEAEQEDEEIKKLSAFWDREIQEGAVFPPTLKTERRFLKEKIITGSFGMPFAPFLRNAEPHEDASELVIETEHGETVIPLEKAYDLIFAFSQNGKPLRDDGPVHIYFGDGSNREAPITHVRRLVVR | not soluble
